Biological target: GST-tagged intracellular c-terminus of LRP6, in vitro phosphorylated with GSK3 and CK1
Test: pull-down

Question: “Strep-tag-Mena-EVH1-CC (domain or fragment)” was tested. Which fold increase of the interaction against unphosphorylated GST-LRP6 did it give?
Answer: Its fold increase of the interaction against unphosphorylated GST-LRP6 is 20 fold.
